Results published in patent US20130203661A1 (AEGERION PHARMACEUTICALS, published 2013).

T1: chimeric Leptin (Hu)-EPO (Mu) receptor presented by the 32D OBECA cell line (human; murine, UniProt P48357 22-839; P14753 250-507)
T1 construct: Chimera of human leptin receptor and murine EPO receptor on 32D OBECA / 32D-Keptin cells; 273(29): 18365-18373; also called chimeric Hu-Leptin/Mu-EPO receptor
T1 sequence (looked up): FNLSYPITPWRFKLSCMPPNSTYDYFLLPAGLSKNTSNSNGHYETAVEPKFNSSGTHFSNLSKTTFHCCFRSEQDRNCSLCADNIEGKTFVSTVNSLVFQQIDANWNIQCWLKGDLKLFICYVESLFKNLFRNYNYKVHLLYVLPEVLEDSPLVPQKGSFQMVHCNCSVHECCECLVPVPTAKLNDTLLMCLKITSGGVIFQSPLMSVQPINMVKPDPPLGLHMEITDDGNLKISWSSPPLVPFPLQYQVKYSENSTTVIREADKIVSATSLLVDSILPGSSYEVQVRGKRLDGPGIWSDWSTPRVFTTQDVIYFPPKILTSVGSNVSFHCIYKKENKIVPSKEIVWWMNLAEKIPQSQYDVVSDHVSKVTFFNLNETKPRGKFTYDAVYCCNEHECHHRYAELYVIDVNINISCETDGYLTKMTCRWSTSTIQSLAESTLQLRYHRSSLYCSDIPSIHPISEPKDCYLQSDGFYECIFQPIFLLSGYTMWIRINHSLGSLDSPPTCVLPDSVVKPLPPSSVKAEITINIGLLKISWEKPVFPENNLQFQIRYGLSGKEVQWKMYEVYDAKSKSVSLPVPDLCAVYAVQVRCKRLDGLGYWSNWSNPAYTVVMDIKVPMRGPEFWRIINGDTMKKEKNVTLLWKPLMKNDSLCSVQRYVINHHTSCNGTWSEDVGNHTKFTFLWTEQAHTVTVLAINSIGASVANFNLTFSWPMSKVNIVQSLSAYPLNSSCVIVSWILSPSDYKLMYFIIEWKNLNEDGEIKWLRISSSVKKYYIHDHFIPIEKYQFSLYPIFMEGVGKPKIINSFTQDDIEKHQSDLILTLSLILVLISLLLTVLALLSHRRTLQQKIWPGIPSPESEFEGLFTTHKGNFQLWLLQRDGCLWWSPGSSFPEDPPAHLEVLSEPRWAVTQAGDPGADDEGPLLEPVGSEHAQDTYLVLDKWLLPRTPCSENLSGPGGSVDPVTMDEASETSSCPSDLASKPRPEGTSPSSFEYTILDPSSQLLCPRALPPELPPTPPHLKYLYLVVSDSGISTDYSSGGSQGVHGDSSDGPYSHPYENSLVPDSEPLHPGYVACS


Tests used:
[1] = biological target: T1, chimeric Leptin (Hu)-EPO (Mu) receptor …; assay: Obeca cell binding: displacement of 125I-murine leptin from 32D OBECA cell membranes
[2] = biological target: T1, chimeric Leptin (Hu)-EPO (Mu) receptor …; assay: cell-based or functional assay

| Binder | IC50 [1] | EC50 (Obeca Stat 5 functional assay) [2] |
| --- | --- | --- |
| Seal leptin with N-terminal methionine, and with amino acids 71-92 replaced with amino acids 73-94 (helix 3) of metreleptin (ligand, Seal-human chimeric leptin; also called Compound 41; Cmpd 41) MPIQRVQDDTKTLIKTIITRINDISPPQGVCSRPRVAGLDFIPRVQSVRTLSGMDQILATYQQILTSLQSRNVIQISNDLENLRDLLHVLAFSKSCPVPRARGSDTIKGLGNVLRASVHSTEVVALSRLKAALQDMLRQLDRNPGC | 0.555 nM | 0.028 nM |
| Seal leptin with N-terminal methionine, and with amino acids 3-22 replaced with amino acids 5-24 (helix 1) of metreleptin (ligand) MPIQKVQDDTKTLIKTIVTRINDISPPQGVCSRPRVAGLDFIPRVQSVRTLSGMDQILATYQQILTSLQSRSVVQIANDLANLRALLRLLASAKSCPVPRARGSDTIKGLGNVLRASVHSTEVVALSRLKAALQDMLRQLDRNPGC | – | 0.095 nM |
| Seal leptin with N-terminal methionine, and with amino acids 120-141 replaced with amino acids 122-143 (helix 4) of metreleptin (ligand, Seal-human chimeric leptin; also called Compound 44) MPIQRVQDDTKTLIKTIITRINDISPPQGVCSRPRVAGLDFIPRVQSVRTLSGMDQILATYQQILTSLQSRSVVQIANDLANLRALLRLLASAKSCPVPRARGSDTIKGLGNVLRASVHSTEVVALSRLQGSLQDMLWQLDLNPGC | 3.54 nM | 0.032 nM |
| Seal leptin with N-terminal methionine, with amino acids 23-49 replaced with amino acids 25-51 (AB loop) of metreleptin, and with amino acids 93-119 replaced … (ligand, Seal-human chimeric leptin; also called Compound 47) MPIQRVQDDTKTLIKTIITRINDISHTQSVSSKQKVTGLDFIPGLHPILTLSGMDQILATYQQILTSLQSRSVVQIANDLANLRALLRLLASAKSCHLPWASGLETLDSLGGVLEASGYSTEVVALSRLKAALQDMLRQLDRNPGC | 0.788 nM | 0.0625 nM |
| Seal leptin with N-terminal methionine, and with amino acids 93-119 replaced with amino acids 95-121 (loop 3-4) of metreleptin (ligand, Seal-human chimeric leptin; also called Compound 42; Cmpd 42) MPIQRVQDDTKTLIKTIITRINDISPPQGVCSRPRVAGLDFIPRVQSVRTLSGMDQILATYQQILTSLQSRSVVQIANDLANLRALLRLLASAKSCHLPWASGLETLDSLGGVLEASGYSTEVVALSRLKAALQDMLRQLDRNPGC | 2.02 nM | 0.043 nM |
| Seal leptin with N-terminal methionine, and with amino acids 23-49 replaced with amino acids 25-51 (AB loop) of metreleptin (ligand, Seal-human chimeric leptin; also called Compound 46) MPIQRVQDDTKTLIKTIITRINDISHTQSVSSKQKVTGLDFIPGLHPILTLSGMDQILATYQQILTSLQSRSVVQIANDLANLRALLRLLASAKSCPVPRARGSDTIKGLGNVLRASVHSTEVVALSRLKAALQDMLRQLDRNPGC | 0.479 nM | 0.042 nM |
| Seal leptin with N-terminal methionine, and with amino acids 71-92 replaced with amino acids 73-94 (helix 3) of metreleptin, and with amino acids 23-49 … (ligand, Seal-human chimeric leptin; also called Compound 51) MPIQRVQDDTKTLIKTIITRINDISHTQSVSSKQKVTGLDFIPGLHPILTLSGMDQILATYQQILTSLQSRNVIQISNDLENLRDLLHVLAFSKSCPVPRARGSDTIKGLGNVLRASVHSTEVVALSRLKAALQDMLRQLDRNPGC | 0.119 nM | 0.038 nM |
| Seal leptin (ligand, also called Compound 38; Cmpd 38) PIQRVQDDTKTLIKTIITRINDISPPQGVCSRPRVAGLDFIPRVQSVRTLSGMDQILATYQQILTSLQSRSVVQIANDLANLRALLRLLASAKSCPVPRARGSDTIKGLGNVLRASVHSTEVVALSRLKAALQDMLRQLDRNPGC | 2 nM | 0.019 nM |

Continued, values first:

| IC50 [1] | EC50 (Obeca Stat 5 functional assay) [2] | Binder |
| --- | --- | --- |
| 0.527 nM | 0.029 nM | Seal leptin with N-terminal methionine, and with amino acids 3-22 replaced with amino acids 5-24 (helix 1) of metreleptin, and amino acids 72-93 replaced with … (ligand, Seal-human chimeric leptin; also called Compound 45) MPIQKVQDDTKTLIKTIVTRINDISPPQGVCSRPRVAGLDFIPRVQSVRTLSGMDQILATYQQILTSLQSRNVIQISNDLENLRDLLHVLAFSKSCPVPRARGSDTIKGLGNVLRASVHSTEVVALSRLKAALQDMLRQLDRNPGC |
| 0.036 nM | 0.039 nM | Seal leptin with N-terminal methionine, and with amino acids 30 and 71-92 replaced with amino acids 32 and 73-94 (helix 3) of metreleptin (ligand, Seal-human chimeric leptin; also called Compound 48; Cmpd 48) MPIQRVQDDTKTLIKTIITRINDISPPQGVSSRPRVAGLDFIPRVQSVRTLSGMDQILATYQQILTSLQSRNVIQISNDLENLRDLLHVLAFSKSCPVPRARGSDTIKGLGNVLRASVHSTEVVALSRLKAALQDMLRQLDRNPGC |
| 3.08 nM | 0.054 nM | Seal leptin with N-terminal methionine, and with amino acids 50-65 replaced with amino acids 52-67 (helix 2) of metreleptin (ligand, Seal-human chimeric leptin; also called Compound 43) MPIQRVQDDTKTLIKTIITRINDISPPQGVCSRPRVAGLDFIPRVQSVRTLSKMDQTLAVYQQILTSLQSRSVVQIANDLANLRALLRLLASAKSCPVPRARGSDTIKGLGNVLRASVHSTEVVALSRLKAALQDMLRQLDRNPGC |
| – | 0.044 nM | Seal leptin with N-terminal methionine, with amino acids 23-49 replaced with amino acids 25-51 (AB loop) of metreleptin, with amino acids 93-119 replaced with … (ligand) MPIQRVQDDTKTLIKTIITRINDISHTQSVSSKQKVTGLDFIPGLHPILTLSGMDQILATYQQILTSLQSRNVIQISNDLENLRDLLHVLAFSKSCHLPWASGLETLDSLGGVLEASGYSTEVVALSRLKAALQDMLRQLDRNPGC |
| 0.105 nM | 0.034 nM | Seal leptin with N-terminal methionine, and with amino acids 30 and 93-119 replaced with amino acids 32 and 95-121 (loop 3-4) of metreleptin (ligand, Seal-human chimeric leptin; also called Compound 49; Cmpd 49) MPIQRVQDDTKTLIKTIITRINDISPPQGVSSRPRVAGLDFIPRVQSVRTLSGMDQILATYQQILTSLQSRSVVQIANDLANLRALLRLLASAKSCHLPWASGLETLDSLGGVLEASGYSTEVVALSRLKAALQDMLRQLDRNPGC |
| 0.214 nM | 0.022 nM | Seal leptin with N-terminal methionine, with amino acids 71-92 replaced with amino acids 73-94 (helix 3) of metreleptin, and with amino acids 93-119 replaced … (ligand, Seal-human chimeric leptin; also called Compound 50) MPIQRVQDDTKTLIKTIITRINDISPPQGVCSRPRVAGLDFIPRVQSVRTLSGMDQILATYQQILTSLQSRNVIQISNDLENLRDLLHVLAFSKSCHLPWASGLETLDSLGGVLEASGYSTEVVALSRLKAALQDMLRQLDRNPGC |
| 2.41 nM | 0.588 nM | Seal leptin with N-terminal methionine, with amino acids 23-49 replaced with amino acids 25-51 (AB loop) of metreleptin, and with amino acids 120-141 replaced … (ligand, Seal-human chimeric leptin; also called Compound 40) MPIQRVQDDTKTLIKTIITRINDISHTQSVSSKQKVTGLDFIPGLHPILTLSGMDQILATYQQILTSLQSRSVVQIANDLANLRALLRLLASAKSCPVPRARGSDTIKGLGNVLRASVHSTEVVALSRLQGSLQDMLWQLDLNPGC |
